This note sets out measurements from paper PMC7116145.

For the experiment, the target named is CPTX, biotinylated on a C-terminal Avitag (immobilised in SPR) (UniProt P23435). As to the kind of experiment: SPR. Background: Surface plasmon resonance follows binding to a sensor surface in real time, without labels.

B1: mouse glutamate receptor A4 amino-terminal domain (domain or fragment)
chain: GAFPSSVQIGGLFIRNTDQEYTAFRLAIFLHNTSPNASEAPFNLVPHVDNIETANSFAVTNAFCSQYSRGVFAIFGLYDKRSVHTLTSFCSALHISLITPSFPTEGESQFVLQLRPSLRGALLSLLDHYEWNCFVFLYDTDRGYSILQAIMEKAGQNGWHVSAICVENFNDVSYRQLLEELDRRQEKKFVIDCEIERLQNILEQIVSVGKHVKGYHYIIANLGFKDISLERFIHGGANVTGFQLVDFNTPMVTKLMDRWKKLDQREYPGSETPPKYTSALTYDGVLVMAETFRSLRRQKIDISRRGNAGDCLANPAAPWGQGIDMERTLKQVRIQGLTGNVQFDHYGRRVNYTMDVFELKSTGPRKVGYWNDMDKLVLIQDAPTLGNDTAAIENRTVVVT
For B1, the Kd (as a rule, the constant that tells how readily two partners part at equilibrium) was 4.5 µM.
